# Source: the supplement of paper PMC9233669
# Variants at the floor of the assay were thinned out.
# Key:
# biotinyl-Trp-oxazolone = test: self-aminoacylation, catalytic enhancement (BWO) (fold over background); higher = more active; k-Seq, kA / k0A0; sequences stand for … in GGGAAUGGAUCCACAUCUACGAAUUC…UUCACUGCAGACUUGACGAAGCUG
# Method in brief: (§1)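 Mutagenized RNA pools (0.43 μM; 21-nt variable region) were treated with 2–1250 μM of each biotinyl-aminoacyl-oxazolone. Conditions were 50 μL HEPES/NaCl/KCl/MgCl2/CaCl2 buffer, 5% acetonitrile, pH 6.9–7.0, room temperature, 90 minutes. Catalytic enhancement, the median kA relative to the uncatalyzed rate, was derived from streptavidin capture, qPCR and Illumina sequencing.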
# biotinyl-Val-oxazolone = test: self-aminoacylation, catalytic enhancement (BVO) (fold over background); higher = more active; k-Seq, kA / k0A0; sequences stand for … in GGGAAUGGAUCCACAUCUACGAAUUC…UUCACUGCAGACUUGACGAAGCUG
# Method in brief: as §1
# biotinyl-Met-oxazolone = test: self-aminoacylation, catalytic enhancement (BMO) (fold over background); higher = more active; k-Seq, kA / k0A0; sequences stand for … in GGGAAUGGAUCCACAUCUACGAAUUC…UUCACUGCAGACUUGACGAAGCUG
# Method in brief: as §1
# biotinyl-Phe-oxazolone = test: self-aminoacylation, catalytic enhancement (BFO) (fold over background); higher = more active; k-Seq, kA / k0A0; sequences stand for … in GGGAAUGGAUCCACAUCUACGAAUUC…UUCACUGCAGACUUGACGAAGCUG
# Method in brief: as §1
# biotinyl-Ile-oxazolone = test: self-aminoacylation, catalytic enhancement (BIO) (fold over background); higher = more active; k-Seq, kA / k0A0; sequences stand for … in GGGAAUGGAUCCACAUCUACGAAUUC…UUCACUGCAGACUUGACGAAGCUG
# Method in brief: as §1
# biotinyl-Leu-oxazolone = test: self-aminoacylation, catalytic enhancement (BLO) (fold over background); higher = more active; k-Seq, kA / k0A0; sequences stand for … in GGGAAUGGAUCCACAUCUACGAAUUC…UUCACUGCAGACUUGACGAAGCUG
# Method in brief: as §1
Sequence,self-aminoacylation (biotinyl-Trp-oxazolone),self-aminoacylation (biotinyl-Val-oxazolone),self-aminoacylation (biotinyl-Met-oxazolone),self-aminoacylation (biotinyl-Phe-oxazolone),self-aminoacylation (biotinyl-Ile-oxazolone),self-aminoacylation (biotinyl-Leu-oxazolone)
CUAGUUCAAACAAUCGGUCUU [Fam1A.1 aminoacylation ribozyme variant],3.27,1.01,1.25,5.06,1.14,1.26
CUAGUUCAAACAAUCGGUGUG [Fam1A.1 aminoacylation ribozyme variant],1.79,0.947,1.4,1.63,0.992,1.63
CUAGUUCAAACAAUGGGUCUG [Fam1A.1 aminoacylation ribozyme variant],0.678,0.851,1.1,0.792,1.14,1.08
CUAUUUCAAAAAAUCGGUCUG [Fam1A.1 aminoacylation ribozyme variant],1.73,0.85,1,2.31,1.13,1.18
CUAUUUCAAACAACCGGUCUG [Fam1A.1 aminoacylation ribozyme variant],0.827,0.861,0.85,0.87,0.992,0.844
CUAUUUCAAACAAUCGGACUG [Fam1A.1 aminoacylation ribozyme variant],1.12,0.733,0.82,1.93,0.976,0.803
CUAUUUCAAACAAUGGGUCUG [Fam1A.1 aminoacylation ribozyme variant],0.802,0.81,0.836,0.641,0.924,0.863
CUAUUUCAAACAAUUGGUCUG [Fam1A.1 aminoacylation ribozyme variant],0.736,0.873,0.994,0.87,1.01,0.929
CUAUUUCAAACAGUCGGUCUG [Fam1A.1 aminoacylation ribozyme variant],0.682,0.8,0.859,0.588,0.827,0.843
CUAUUUCGAACAAUCGGUCUG [Fam1A.1 aminoacylation ribozyme variant],0.67,0.793,0.799,0.664,0.814,0.697
CUCCUUCAAACAAGCGGUCUG [Fam1A.1 aminoacylation ribozyme variant],1.25,0.83,0.734,0.811,0.98,0.774
CUCCUUCAAACAAUCCGUCUG [Fam1A.1 aminoacylation ribozyme variant],1.25,0.949,0.657,1.24,1.03,0.659
CUCCUUCAAACAUUCGGUCUG [Fam1A.1 aminoacylation ribozyme variant],1.66,1.32,1.31,3.15,1.24,1.05
CUCCUUCAAACGAUCGGUCUG [Fam1A.1 aminoacylation ribozyme variant],2.2,0.925,0.833,1.86,0.833,1.21
CUCCUUCAAACUAUCGGUCUG [Fam1A.1 aminoacylation ribozyme variant],1.5,1.15,1.17,1.92,1.14,0.895
CUCCUUCAUACAAUCGGUCUG [Fam1A.1 aminoacylation ribozyme variant],0.794,0.664,0.609,0.839,0.652,0.771
CUCUUUCAAACAAUCGGUCUG [Fam1A.1 aminoacylation ribozyme variant],9.95,0.908,1.13,14.2,0.972,1.21
CUGCACCUAGGUCAUCGGGUG [Fam2.2 aminoacylation ribozyme variant],6.48,5.11,7.52,60,3.76,7.81
CUGCUUCAAACAAUAGGUCUG [Fam1A.1 aminoacylation ribozyme variant],0.575,0.669,0.551,0.781,0.621,0.547
CUGCUUCAAACAAUCGGUCCG [Fam1A.1 aminoacylation ribozyme variant],39.6,1.38,1.34,119,1.35,2.38
CUGCUUCAAACAAUCUGUCUG [Fam1A.1 aminoacylation ribozyme variant],1.53,0.701,0.675,4.03,0.604,0.647
CUGCUUCAAACAAUUGGUCUG [Fam1A.1 aminoacylation ribozyme variant],1.19,0.657,0.715,1.54,0.789,0.726
CUGCUUCAAACGAUCGGUCUG [Fam1A.1 aminoacylation ribozyme variant],3.49,0.803,0.991,2.63,0.727,1.11
